Where two headings read alike, the source gives them in different places.
Tests used:
Experiment in all cases: cell-based or functional assay
[1] = molecular target: IVIg (Octagam)
[2] = molecular target: IVIg (Octagam); remark: listed apart in the source
[3] = molecular target: adalimumab (Humira)
[4] = molecular target: denosumab (XGEVA)

Row | Substance | Conc. of enzyme, 2nd IgG heavy chain, scIgG to F(ab')2 (gel) [1] | enzyme concentration giving a dominating scIgG band on SDS-PAGE [1] | enzyme concentration giving mainly scIgG on SDS-PAGE [1] | Conc. of enzyme, 1st IgG heavy chain, IgG to scIgG (gel) [2] | Conc. of enzyme, 2nd IgG heavy chain, scIgG to F(ab')2 (gel) [2] | enzyme concentration giving equal cleavage on SDS-PAGE [3] | enzyme concentration giving a dominating F(ab')2 band on SDS-PAGE [4] | enzyme concentration giving a single intense scIgG band on SDS-PAGE ([4]; scale: pig/ml)
1 | BX1001865 (IdeS lacking tag, produced to GMP standard) (enzyme) | 6000 ng/mL | 1.9 ng/mL | 1.9 ng/mL | 1900 ng/mL | 7500 ng/mL |  |  | 
2 | pCART124 (IdeS with additional N terminal methionine and histidine tag) (enzyme) | 6000 ng/mL | 1.9 ng/mL |  | 1900 ng/mL | 7500 ng/mL |  |  | 
3 | pCART144 (IdeZ with additional N terminal methionine and histidine tag) (enzyme) |  |  |  |  |  | 4.6 ng/mL | 3.3 µg/mL | 0.12

— patent publication US20200179497A1
